Measurements from patent US20220281997A1.

Molecular target: camel-derived heavy-chain antibodies on camel PBMC cells
Test: flow cytometry, PE-labeled antibody on PBMC of a non-immunized camel

Row | proportion of PBMC cells specific for heavy-chain antibodies [%] | Binder
1 | 22.8 | R166.C5 (antibody, V domains shown) VH: QSVEESGGRLVTPGTPLTLTCTVSGFSLRNFAMSWVRQAPGKGLEWIGIIYSGGTRDYATWAKGRFTISKTSTTVDLKMTSPTTEDTATYFCARDRSPDYSAAFLLWGQGTLVTVSS VL: IVMTQTPSSKSVPVGDTVTINCQASESVYSNNHLAWFQQKPGQPPKLLIYSASTLESGVPSRFKGSGSGTQFTLTISGVQCDDAATYYCAGYKSSDTDGTSFGGGTEVVVKG
2 | 23.3 | R166.E7 (antibody, V domains shown) VH: QSVEESGGRLVTPGTPLTLTCTVSGFSLSSFAMSWVRQAPGKGLEWIGIIYTGGTRDYATWAKGRFTISKTSTTVDLKMTSPTTEDTATYFCARDRSPDYSAAFNLWGQGTLVTVSS VL: IVMTQTPSSKSVPVGDTVTINCQASESVYSNNHLAWFQQKPGQPPKLLIYSASTLESGVPSRFKGSGSGTQFTLTISGVQCDDAATYYCAGYKSSDTDGTSFGGGTEVVVKG
3 | 23.6 | R166.H8 (antibody, V domains shown) VH: QSVEESGGRLVTPGTPLTLTCTVSGFSLSSFAMSWVRQAPGKGLEWIGIIYATGGTRDYATWAAGRFTISKTSTTVGLKMTSPTTEDTATYFCARDRSPDYSAAFNLWGQGTLVTVSS VL: IVMTQTPSSKSVPVGDTVTINCQASESVYSNNHLAWFQQKPGQPPKLLIYSASTLESGVPSRFKGSGSGTQFTLTISGVQCDDAATYYCAGYKSSDTDGTSFGGGTEVVVKG
4 | 24.2 | R166.H9 (antibody, V domains shown) VH: QSLEESGGRLVTPGTPLTLTCTASGFSLNNYNMIWVRQAPGEGLEWIGMIGDGDDAAWYASWAKGRFTISKTSTTVDLEVTSLTTEDTAIYFCARYLSFTRLDLWGQGTLVTVSS VL: AVLTQTPSPVSAAVGGTVTINCQSSQSVYHNNWLAWYQQKPGQPPKLLIYGAATLASGVPSRFKGSGSGTQFTFTITDVQCDDVGTYYCAGVYNDDSENAFGGGTEVVVKG
5 | 17.2 | R166.G8 (antibody, V domains shown) VH: LEQSGGGAEGGLVKPGGSLELCCKASGFSLSNIYWICWVRQAPGTGLEWIGCINSGSNSYTYYANWVDGRFTLSRDIDQSTGCLQLNSLTAADTAMYYCARDRDAADTSDWSLNFWGQGTLVTVSS VL: QVLTQTPSSVSAAVGGTVTISCQSSDSVNNDNWLAWYQQKPGQPPKLLIYQASKLASGVPSRFSGSGSGTQFTLTISGVQCDDAANYYCQGTGYSSTWYVAFGGGTEVVVKG
